# Source: paper PMC5306355, “Clustered Genes Encoding 2-Keto-L-Gulonate Reductase and L-Idonate 5-Dehydrogenase in the Novel Fungal D-Glucuronic Acid Pathway” (Frontiers in Microbiology, 2017)
# Legend:
# Assay type in all cases: biochemical, Aspergillus niger
# [1] = test system: GluE; assay: NADH oxidation followed at […] nm; settings: 400 μM NADH; 50 mM Tris pH 7
# [2] = test system: GluE; assay: NADH formation followed at […] nm; settings: 400 μM NAD+; 50 mM Tris pH 8
# [3] = substrate: O=C(O)C(=O)[C@@H](O)[C@H](O)[C@@H](O)CO; assay: purified protein; settings: NADPH as co-substrate (Methods print 400 μM NADH), 50 mM Tris pH 7
# [4] = substrate: O=C(O)[C@H](O)[C@@H](O)[C@H](O)[C@@H](O)CO; assay: purified protein; settings: NADP+ as co-substrate (Methods print 400 μM NAD+), 50 mM Tris pH 8
molecule,measurement,setting,value
O=C(CO)[C@@H](O)[C@H](O)[C@@H](O)C(=O)O [5-keto-D-gluconate],Km,[1],8.4 ± 0.1 mM
O=C(O)[C@H](O)[C@@H](O)[C@H](O)[C@@H](O)CO [L-idonate],Km,[2],30.9 ± 1.5 mM
GluD (Aspergillus niger) (protein) MPAALLIGAITHSMPEWNDLSSILTLKEFPSGTREDFIRNCRDGQYDDVVAIYRSNTSTKFTGPFDAELLSFLPSSLKYIAHNGAGYDNIDVAACTKKGIAVSSTPVAVNNATADVAIFLMIGALRQAYIPVTSLREGKFLGQTGLGHDPQNKVLGILGMGGIGREVARRARAFGMTIQYHNRSRLSPELEDGATYVSFDELLANSDVLSLNLALNASTRHIIGKTEFQKMKDGVIIVNTARGALIDEKALVEALESGKVWSAGLDVYENEPAIEPGLVNNPRVMLLPHIGTMTYETQREMELLVLNNLRSGVETGKMITLVPEQKDVFGK,Km,[3],25.3 ± 1.2 mM
same,Vmax,[3],34.9 µmol/min/mg
same,kcat,[3],21.4 ± 0.3 s⁻¹
same,Km,[4],12.6 ± 0.8 mM
same,Vmax,[4],1.7 µmol/min/mg
same,kcat,[4],1.1 s⁻¹
